Legend:
Experiment in all cases: SPR direct binding, antigen immobilized, hybridoma supernatant
[1] = target: T1, cyclo(CGHDSGG)-conjugated-BSA (SEQ ID NO: 2) (bovine, UniProt P02769 25-607, head-to-tail cyclized (amide bond between N-terminus and C-terminus); Cys conjugated to BSA through SMCC)
T1 construct: HDSG is A-beta residues 6-9; C, G and GG are linker residues; also called Cyclic-Peptide; cyclic peptide
Protocol: (§1) SPR Analysis All SPR measurements were performed using a Molecular Affinity Screening System (MASS-1) (Sierra Sensors GmbH, Hamburg, Germany), an analytical biosensor that employs high intensity laser light and high speed optical scanning to monitor binding interactions in real time. The primary screening of tissue culture supernatants was performed using an SPR direct binding assay, whereby BSA-conjugated peptides, A-Beta42 Monomer and A-beta42 Oligomer are covalently immobilized on individual flow cells of a High Amine Capacity (HAC) sensorchip (Sierra Sensors GmbH, Hamburg, Germany) and antibodies flowed over the surface. Protein G purified mAbs were analyzed in a secondary screen using an SPR indirect (capture) binding assay, whereby the antibodies were captured on a protein A-derivatized sensorchip (XanTec Bioanalytics GmbH, Duesseldorf, Germany) and A-Beta40 Monomer, A-beta42 Oligomer, soluble brain extracts and cerebrospinal fluid flowed over the surface. The specificity of the antibodies was verified in an SPR direct binding assay by covalently immobilizing A-Beta42 Monomer and A-beta42 Oligomer on individual flow cells of a HAC sensorchip and flowing purified mAbs.
(§2) Clones were retested for their ability to bind cyclic peptide, linear peptide, A-beta 1-42 monomer and A-beta 1-42 oligomers prepared as described above. Binding assays were performed using SPR as described above (Direct binding assays).

A-beta42 monomer = target: T2, A-beta42 monomer (human)
T2 construct: also called Aβ 42 Monomer; A-beta 1-42 monomer
T2 sequence (peptide, as listed by the source): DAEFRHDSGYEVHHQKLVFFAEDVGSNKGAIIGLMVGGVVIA
Protocol: as §1, §2

A-beta42 oligomer = target: T3, A-beta42 oligomer (human)
T3 construct: also called Aβ 42 Oligomer; A-beta 1-42 oligomers
T3 sequence (peptide, as listed by the source): as above
Protocol: as §1, §2

T1 sequence (P02769 25-607 limits assumed): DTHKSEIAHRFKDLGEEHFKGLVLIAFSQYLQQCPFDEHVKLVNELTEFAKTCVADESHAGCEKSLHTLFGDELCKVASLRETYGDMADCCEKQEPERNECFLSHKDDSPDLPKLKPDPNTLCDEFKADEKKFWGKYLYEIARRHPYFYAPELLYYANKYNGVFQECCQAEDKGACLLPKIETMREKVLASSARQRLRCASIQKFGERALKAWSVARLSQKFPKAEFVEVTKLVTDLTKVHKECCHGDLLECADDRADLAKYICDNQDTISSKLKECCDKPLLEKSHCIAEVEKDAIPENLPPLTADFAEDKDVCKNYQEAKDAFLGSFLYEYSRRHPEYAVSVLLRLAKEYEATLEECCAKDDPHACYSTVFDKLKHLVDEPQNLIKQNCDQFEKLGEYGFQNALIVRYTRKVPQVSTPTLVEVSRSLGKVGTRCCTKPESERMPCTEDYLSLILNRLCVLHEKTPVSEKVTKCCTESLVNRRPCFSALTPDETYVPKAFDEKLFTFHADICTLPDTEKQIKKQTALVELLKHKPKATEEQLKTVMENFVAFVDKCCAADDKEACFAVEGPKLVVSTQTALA

B1: 303-25-1B4 (antibody, V domains shown)
VH: QVQLQQPGAELVRPGASVKLSCKASGYTFTSYWMNWVKQRPGQGLEWIGMIDPSDSQTHYNQMFKDKATLTVDKSSSTAYLQLSSLTSEDSAVYYCSRGGYWGQGTTLTVSS
VL: DIQMTQSPSSLSASLGGKVTITCKASQDINNYIAWYQHKPGKGPRQLIYYTSTLQPGIPSRFSGSGSGRDYSFTISDLEPEDIATYYCLQYDNLWTFGGGTKLEIK
notes: Mouse monoclonal raised against cyclo(CGHDSGG)-KLH; also called clone 25
- SPR binding response (RU) [1]: 136 RU
- SPR binding response (RU) (A-beta42 monomer): 56.5 RU
- SPR binding response (RU) (A-beta42 oligomer): 109 RU

Source: patent US20180326086A1 (UNIVERSITY OF BRITISH COLUMBIA, published 2018)
